The target in one test is Hsp90-H210A (human) (UniProt P07900). Briefly: ITC; 20 mM Tris pH 7.5, 5 mM NaCl, 1 mM EDTA, 30 °C; Hsp90 listed as protein, hAha1 as ligand; at least 3 experiments. Background: Isothermal titration calorimetry measures the heat released or taken up as one component is titrated into another.
Test [1] deals with purified Hsp90-H210A (human) (UniProt P07900). Briefly: ITC; Supplementary Table 2, obtained separately: 20 mM Tris pH 7.5, 5 mM NaCl, 1 mM EDTA, 30 °C.

Kd, stoichiometry N and fold increase of Kd against wild-type Hsp90 data for two substances are collected here from publication PMC6561935, “Hsp90 middle domain phosphorylation initiates a complex conformational program to recruit the ATPase-stimulating cochaperone Aha1” (Nature Communications, 2019).

The term Kd denotes the constant that tells how readily two partners part at equilibrium. A lower Kd goes with higher affinity. By stoichiometry N is commonly meant the number of molecules, sites or subunits per partner or assembly. In the test with Hsp90-H210A (human), “Human Aha1 (wild-type, full-length) (from UniProt O95433 1-338) (natural protein)” came in with a Kd of 14.6 µM and a stoichiometry N of 0.37.
In the case of “purified full-length Aha1 (from UniProt O95433 1-338) (natural protein)”, the fold increase of Kd against wild-type Hsp90 in test [1] was 2 fold.
